Data as given in patent publication US20210070882A1 (Hoffmann-La Roche, published 2021).
Residue numbers refer to the chain shown, from its start. “And” between values parts separate entries of the source, which are not always exact repeats. Equal values may be shown once. Read-outs that look alike come from different tables or passages of the source.

Key:
human CD19 [1] = target: T1, human CD19 (human, UniProt P15391 20-556); assay: cell-based or functional assay
T1 sequence (looked up): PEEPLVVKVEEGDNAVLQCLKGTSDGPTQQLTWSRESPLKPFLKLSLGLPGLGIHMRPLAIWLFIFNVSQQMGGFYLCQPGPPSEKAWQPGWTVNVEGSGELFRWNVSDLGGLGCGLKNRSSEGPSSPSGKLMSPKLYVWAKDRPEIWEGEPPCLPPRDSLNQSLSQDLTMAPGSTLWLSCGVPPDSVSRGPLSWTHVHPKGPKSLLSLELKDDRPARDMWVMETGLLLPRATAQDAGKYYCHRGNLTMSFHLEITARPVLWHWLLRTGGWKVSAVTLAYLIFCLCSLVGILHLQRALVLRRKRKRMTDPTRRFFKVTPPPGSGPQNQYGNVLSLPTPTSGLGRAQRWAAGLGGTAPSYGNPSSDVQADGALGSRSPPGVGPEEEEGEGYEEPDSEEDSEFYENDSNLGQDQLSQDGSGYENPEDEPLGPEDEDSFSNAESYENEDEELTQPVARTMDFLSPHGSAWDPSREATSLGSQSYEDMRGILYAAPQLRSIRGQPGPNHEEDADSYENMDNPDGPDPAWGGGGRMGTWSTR

human CD19 [2] = target: T1, human CD19; assay: cell-based or functional assay; remark: listed apart in the source
human CD19 [3] = target: T1, human CD19; assay: flow cytometry on CD19-expressing Raji cells
Experimental: The binding of CD19 IgGs and CD19 TCBs to human CD19- and CD3-expressing target cells was tested using CD19-expressing Burkitt's lymphoma cells (Raji) and CD3-expressing immortalized T lymphocyte line (Jurkat). Briefly, cells were harvested, counted, checked for viability and resuspended at 2×10⁶ cells/ml in FACS buffer (100 μl PBS 0.1% BSA). 100 μl of cell suspension (containing 0.2×10⁶ cells) were incubated in round-bottom 96-well plate for 30 min at 4° C. with increasing concentrations of the CD19 IgGs and CD19 TCBs (10 pM-200 nM), washed twice with cold PBS 0.1% BSA, re-incubated for further 30 min at 4° C. with the PE-conjugated AffiniPure F(ab′)2 Fragment goat anti-human IgG Fcg Fragment Specific secondary antibody (Jackson Immuno Research Lab PE #109-116-170), washed twice with cold PBS 0.1% BSA and immediately analyzed by FACS using a FACS Cantoll (Software FACS Diva) by gating live, DAPI-negative, cells.

human CD19 [4] = target: T1, human CD19; assay: cell-based or functional assay; remark: listed apart in the source
human CD19 [5] = target: T1, human CD19; assay: cell-based or functional assay; remark: listed apart in the source

B1: Molecule G: 2+1 IgG CrossFab, inverted, with charge modifications (VH/VL exchange in CD19 binder, charge modification in CD3 binder, parental murine CD19 … (bispecific antibody)
chain 1: DAVMTQTPLSLPVSLGDQASISCRSSQSLENSNGNTYLNWYLQKPGQSPQLLIYRVSKRFSGVLDRFSGSGSGTDFTLKISRVEAEDLGVYFCLQLTHVPYTFGGGTKLEIKSSASTKGPSVFPLAPSSKSTSGGTAALGCLVKDYFPEPVTVSWNSGALTSGVHTFPAVLQSSGLYSLSSVVTVPSSSLGTQTYICNVNHKPSNTKVDKKVEPKSCDKTHTCPPCPAPEAAGGPSVFLFPPKPKDTLMISRTPEVTCVVVDVSHEDPEVKFNWYVDGVEVHNAKTKPREEQYNSTYRVVSVLTVLHQDWLNGKEYKCKVSNKALGAPIEKTISKAKGQPREPQVCTLPPSRDELTKNQVSLSCAVKGFYPSDIAVEWESNGQPENNYKTTPPVLDSDGSFFLVSKLTVDKSRWQQGNVFSCSVMHEALHNHYTQKSLSLSP
chain 2: not shown
chain 3: EVQLQQSGPELVKPGASVKMACKASGYTFTDYIMHWVKQKTGQGLEWIGYINPYNDGSKYTEKFNGKATLTSDKSSITAYMELSSLTSEDSAVYYCARGTYYYGSALFDYWGQGTTLTVSSASVAAPSVFIFPPSDEQLKSGTASVVCLLNNFYPREAKVQWKVDNALQSGNSQESVTEQDSKDSTYSLSSTLTLSKADYEKHKVYACEVTHQGLSSPVTKSFNRGEC
chain 4: QAVVTQEPSLTVSPGGTVTLTCGSSTGAVTTSNYANWVQEKPGQAFRGLIGGTNKRAPGTPARFSGSLLGGKAALTLSGAQPEDEAEYYCALWYSNLWVFGGGTKLTVLGQPKAAPSVTLFPPSSKKLQANKATLVCLISDFYPGAVTVAWKADSSPVKAGVETTTPSKQSNNKYAASSYLSLTPEQWKSHRSYSCQVTHEGSTVEKTVAPTECS
T cell activation EC50 upon lysis of Z-138 cells, CD25/CD4 (human CD19 [1]): 1.85 pM
T cell activation EC50 upon lysis of Z-138 cells, CD25/CD8 (human CD19 [1]): 1.53 pM
T cell activation EC50 upon lysis of Z-138 cells, CD69/CD4 (human CD19 [1]): ~0.75 pM
T cell activation EC50 upon lysis of Z-138 cells, CD69/CD8 (human CD19 [1]): 0.7 pM
T cell activation EC50 upon lysis of Z-138 cells, CD107/CD4 (human CD19 [1]): 1.14 pM
T cell activation EC50 upon lysis of Z-138 cells, CD107/CD8 (human CD19 [1]): 1.13 pM
Tumor cell lysis Z-138 cells (21 h), EC50 (human CD19 [2]): 0.57 ng/mL
Tumor cell lysis Z-138 cells (21 h), EC50 (pM) (human CD19 [2]): 2.93 pM

B2: CD19_IgG_10C1 (antibody, V domains shown)
VH: EVQLQQSGPELVKPGASVKMSCKASGYTFTSYVMHWVKQKPGQGLEWIGYINPYNDGTKFNEKFKGKATLTSDKSSSTAYMELSSLTSEDSAVYYCTRGVYYYGSSQGDYWGQGTTLTVSS
VL: DAVMTQTPLSLPVSLGDQASISCRSSQSLENSNGNTYLNWYLQKPGQSPQLLIYRISNRFSGVPDRFNGSGSGTDFTLKISRVEAEDLGVYFCLQVTHVPWTFGGGTKLEIK
notes: also called CD19 IgG (clone 10C1); 10C1 as IgG
EC50 (human CD19 [3]): 5.2 nM and 0.763 µg/mL

B3: Molecule E: 1+1 IgG CrossFab, inverted, without charge modifications (CH1/CL exchange in CD3 binder, parental murine CD19 binder 8B8) (bispecific antibody)
chain 1: not shown
chain 2: QAVVTQEPSLTVSPGGTVTLTCGSSTGAVTTSNYANWVQEKPGQAFRGLIGGTNKRAPGTPARFSGSLLGGKAALTLSGAQPEDEAEYYCALWYSNLWVFGGGTKLTVLSSASTKGPSVFPLAPSSKSTSGGTAALGCLVKDYFPEPVTVSWNSGALTSGVHTFPAVLQSSGLYSLSSVVTVPSSSLGTQTYICNVNHKPSNTKVDKKVEPKSC
chain 3: DAVMTQTPLSLPVSLGDQASISCRSSQSLENSNGNTYLNWYLQKPGQSPQLLIYRVSKRFSGVLDRFSGSGSGTDFTLKISRVEAEDLGVYFCLQLTHVPYTFGGGTKLEIKRTVAAPSVFIFPPSDEQLKSGTASVVCLLNNFYPREAKVQWKVDNALQSGNSQESVTEQDSKDSTYSLSSTLTLSKADYEKHKVYACEVTHQGLSSPVTKSFNRGEC
chain 4: DKTHTCPPCPAPEAAGGPSVFLFPPKPKDTLMISRTPEVTCVVVDVSHEDPEVKFNWYVDGVEVHNAKTKPREEQYNSTYRVVSVLTVLHQDWLNGKEYKCKVSNKALGAPIEKTISKAKGQPREPQVCTLPPSRDELTKNQVSLSCAVKGFYPSDIAVEWESNGQPENNYKTTPPVLDSDGSFFLVSKLTVDKSRWQQGNVFSCSVMHEALHNHYTQKSLSLSP
T cell activation EC50 upon lysis of Z-138 cells, CD25/CD4 (human CD19 [4]): 3.55 pM
T cell activation EC50 upon lysis of Z-138 cells, CD25/CD8 (human CD19 [4]): 3.31 pM
T cell activation EC50 upon lysis of Z-138 cells, CD69/CD4 (human CD19 [4]): 1.04 pM
T cell activation EC50 upon lysis of Z-138 cells, CD69/CD8 (human CD19 [4]): 1.71 pM
T cell activation EC50 upon lysis of Z-138 cells, CD107/CD4 (human CD19 [4]): 2.09 pM
T cell activation EC50 upon lysis of Z-138 cells, CD107/CD8 (human CD19 [4]): 2.76 pM
Tumor cell lysis Z-138 cells (21 h), EC50 (human CD19 [5]): 0.62 ng/mL
Tumor cell lysis Z-138 cells (21 h), EC50 (pM) (human CD19 [5]): 4.2 pM

B4: Molecule F: 1+1 IgG CrossMab with charge modifications (VH/VL exchange in CD3 binder, charge modification in CD19 binder, parental murine CD19 binder 8B8) (bispecific antibody)
chain 1: EVQLQQSGPELVKPGASVKMACKASGYTFTDYIMHWVKQKTGQGLEWIGYINPYNDGSKYTEKFNGKATLTSDKSSITAYMELSSLTSEDSAVYYCARGTYYYGSALFDYWGQGTTLTVSSASTKGPSVFPLAPSSKSTSGGTAALGCLVEDYFPEPVTVSWNSGALTSGVHTFPAVLQSSGLYSLSSVVTVPSSSLGTQTYICNVNHKPSNTKVDEKVEPKSCDKTHTCPPCPAPEAAGGPSVFLFPPKPKDTLMISRTPEVTCVVVDVSHEDPEVKFNWYVDGVEVHNAKTKPREEQYNSTYRVVSVLTVLHQDWLNGKEYKCKVSNKALGAPIEKTISKAKGQPREPQVCTLPPSRDELTKNQVSLSCAVKGFYPSDIAVEWESNGQPENNYKTTPPVLDSDGSFFLVSKLTVDKSRWQQGNVFSCSVMHEALHNHYTQKSLSLSP
chain 2: EVQLLESGGGLVQPGGSLRLSCAASGFTFSTYAMNWVRQAPGKGLEWVSRIRSKYNNYATYYADSVKGRFTISRDDSKNTLYLQMNSLRAEDTAVYYCVRHGNFGNSYVSWFAYWGQGTLVTVSSASVAAPSVFIFPPSDEQLKSGTASVVCLLNNFYPREAKVQWKVDNALQSGNSQESVTEQDSKDSTYSLSSTLTLSKADYEKHKVYACEVTHQGLSSPVTKSFNRGEC
chain 3: B3 chain 3 with E128R, Q129K
chain 4: not shown
T cell activation EC50 upon lysis of Z-138 cells, CD25/CD4 (human CD19 [4]): 10 pM
T cell activation EC50 upon lysis of Z-138 cells, CD25/CD8 (human CD19 [4]): 6.5 pM
T cell activation EC50 upon lysis of Z-138 cells, CD69/CD4 (human CD19 [4]): 3.97 pM
T cell activation EC50 upon lysis of Z-138 cells, CD69/CD8 (human CD19 [4]): 2.59 pM
T cell activation EC50 upon lysis of Z-138 cells, CD107/CD4 (human CD19 [4]): 7.54 pM
T cell activation EC50 upon lysis of Z-138 cells, CD107/CD8 (human CD19 [4]): 4.02 pM
Tumor cell lysis Z-138 cells (21 h), EC50 (human CD19 [5]): 7.85 ng/mL
Tumor cell lysis Z-138 cells (21 h), EC50 (pM) (human CD19 [5]): 53.7 pM

B5: Molecule A: 2+1 IgG CrossFab, inverted, with charge modifications (VH/VL exchange in CD3 binder, charge modification in CD19 binder, parental murine CD19 … (bispecific antibody)
chain 1: B4 chain 1
chain 2: not shown
chain 3: B4 chain 2
chain 4: B3 chain 3 with E128R, Q129K
T cell activation EC50 upon lysis of Z-138 cells, CD25/CD4 (human CD19 [1]): ~4.58 pM
T cell activation EC50 upon lysis of Z-138 cells, CD25/CD8 (human CD19 [1]): 2.87 pM
T cell activation EC50 upon lysis of Z-138 cells, CD69/CD4 (human CD19 [1]): 1.41 pM
T cell activation EC50 upon lysis of Z-138 cells, CD69/CD8 (human CD19 [1]): 1.37 pM
T cell activation EC50 upon lysis of Z-138 cells, CD107/CD4 (human CD19 [1]): 2.34 pM
T cell activation EC50 upon lysis of Z-138 cells, CD107/CD8 (human CD19 [1]): 2 pM
Tumor cell lysis Z-138 cells (21 h), EC50 (human CD19 [2]): 0.92 ng/mL
Tumor cell lysis Z-138 cells (21 h), EC50 (pM) (human CD19 [2]): ~4.7 pM
